{
  "source": "paper PMC10350043",
  "assay_in_all_cases": "FRET or BRET",
  "key": {"[1]": {"target": "RyR2 in cardiac SR membranes decorated with D-32-FKBP (porcine (endogenous in porcine heart) | human)"}, "[2]": {"target": "RyR2 in cardiac SR membranes decorated with D-85-FKBP (porcine (endogenous in porcine heart) | human)"}, "[3]": {"target": "RyR2 in cardiac SR membranes decorated with D-49-FKBP (porcine (endogenous in porcine heart) | human)"}},
  "note": "Where no end group is shown, it is not given here. QXL520 = dark acceptor",
  "data": [
    {"binder": "QXL520-GFCPDHKAAMVLFLDRVYGIEVQDFLLHLLEVGFLP", "note": "[acceptor-labeled DPc10 (QXL520 at the N-terminus)]", "values": [
      {"measurement": "Kd", "setting": "[1]", "value": 13.1, "unit": "µM"},
      {"measurement": "Kd", "setting": "[2]", "value": 10.4, "unit": "µM"},
      {"measurement": "Kd", "setting": "[3]", "value": 9.9, "unit": "µM"}
    ]}
  ]
}
